Source: patent publication US20090215095A1 (INTRINSIC LIFESCIENCES, published 2009)
Ends that are not written are not given here.

Assays:
[1] = biological target: Protein A affinity purified antibodies (anti-hepcidin rabbit sera, source serum not named); assay: competition ELISA with synthetic hepcidin as competitor
[2] = biological target: polyclonal anti-hepcidin rabbit sera (unpurified serum, source rabbit not named); assay: as above
[3] = biological target: affinity purified rabbit anti-mature, folded, bioactive hepcidin antibody (KST4); assay: as above
[4] = biological target: Protein A affinity purified KST4; assay: competitive inhibition ELISA, Protein A purified KST4 at 1:5000 (FIG. 7B)
Protocol: We collected serum from each of three immunized rabbits (KST3, KST4, KST5). KST3 and 4 are sera from rabbits immunized with hepcidin-KLH conjugates produced using EDC chemistry, while KST5 is sera from conjugates produced using DSS chemistry (FIG. 7A). […] Additional validation of the anti-mature, folded, bioactive hepcidin antibodies described above was performed and their utility in competitive ELISA examined in the presence of varying dilutions of bass serum (FIG. 8 A-C). Note increasing inhibition of signal with increasing amounts of synthetic hepcidin added to tracer. Note the effects of serum on competitive ELISA standard curve (FIG. 8 C) generated with data from (FIG. 8 B) between 10-100 ngs of mature, folded, bioactive hepcidin. […] FIG. 9 is an example of a routine standard curve where hepcidin competitor concentrations are expressed as ng/ml, rather than total ngs added to the competition.

- percent of signal competed away [1]: ~80%
- percent of signal competed away [2]: 65%
- percent of signal competed away [3]: > 90%
- IC50 [4]: ~2.5 ng/mL
Binder: GCRFCCNCCPNMSGCGVCCRF-OH (disulfide (positions not given here), also called synthetic hepcidin) [synthetic, mature, refolded, bioactive bass hepcidin]
